Tests used:
[1] = molecular target: T1, CALRdel52 (mutant calreticulin, 52 base pair deletion, Type 1) expressed with MPL on engineered cancer cells (UniProt P27797 18-417); assay: cell-based or functional assay
T1 sequence (looked up): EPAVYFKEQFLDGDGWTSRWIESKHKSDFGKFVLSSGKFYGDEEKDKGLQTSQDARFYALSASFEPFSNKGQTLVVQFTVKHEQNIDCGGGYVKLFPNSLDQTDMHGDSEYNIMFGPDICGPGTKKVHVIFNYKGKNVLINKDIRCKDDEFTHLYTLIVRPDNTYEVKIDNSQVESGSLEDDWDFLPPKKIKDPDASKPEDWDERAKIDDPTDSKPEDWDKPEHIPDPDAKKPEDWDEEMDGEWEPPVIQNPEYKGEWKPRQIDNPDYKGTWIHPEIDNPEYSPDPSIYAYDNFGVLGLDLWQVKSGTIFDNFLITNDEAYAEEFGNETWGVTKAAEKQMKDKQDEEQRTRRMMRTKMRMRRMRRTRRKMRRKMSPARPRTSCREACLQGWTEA

[2] = molecular target: T2, CALRins5 (mutant calreticulin, 5 base pair insertion, Type 2) expressed with MPL on engineered cancer cells (UniProt P27797 18-417); assay: cell-based or functional assay
T2 sequence (looked up): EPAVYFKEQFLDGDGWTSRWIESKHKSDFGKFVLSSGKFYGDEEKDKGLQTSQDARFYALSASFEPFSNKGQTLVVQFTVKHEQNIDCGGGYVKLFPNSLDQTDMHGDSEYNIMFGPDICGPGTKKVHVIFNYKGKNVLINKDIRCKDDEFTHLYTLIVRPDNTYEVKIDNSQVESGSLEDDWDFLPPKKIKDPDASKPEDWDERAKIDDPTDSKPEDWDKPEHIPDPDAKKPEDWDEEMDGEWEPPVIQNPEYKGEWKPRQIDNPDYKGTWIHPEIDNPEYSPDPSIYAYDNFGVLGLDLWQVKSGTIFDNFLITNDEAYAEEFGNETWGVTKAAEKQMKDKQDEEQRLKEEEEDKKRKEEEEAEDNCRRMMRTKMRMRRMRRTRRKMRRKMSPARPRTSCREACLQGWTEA

[3] = molecular target: T3, Avi/his-CalR-Ins5 (CALRW28.004) (human, UniProt P27797 18-417, limits assumed); assay: SPR, forced degradation: Thermal
T3 construct: also called human CALRins5
T3 sequence (looked up): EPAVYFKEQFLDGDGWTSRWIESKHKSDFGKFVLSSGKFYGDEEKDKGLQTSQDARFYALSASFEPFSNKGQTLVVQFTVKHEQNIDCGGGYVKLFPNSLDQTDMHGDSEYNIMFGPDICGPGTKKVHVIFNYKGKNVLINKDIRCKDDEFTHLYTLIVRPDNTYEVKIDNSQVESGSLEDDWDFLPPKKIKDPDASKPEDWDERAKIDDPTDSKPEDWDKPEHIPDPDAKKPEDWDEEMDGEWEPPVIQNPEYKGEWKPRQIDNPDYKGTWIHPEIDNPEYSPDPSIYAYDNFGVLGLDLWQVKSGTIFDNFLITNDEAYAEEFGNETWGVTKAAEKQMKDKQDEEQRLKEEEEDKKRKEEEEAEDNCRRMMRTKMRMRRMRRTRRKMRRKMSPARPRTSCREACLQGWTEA

[4] = molecular target: T4, CD3EG-HSA-6xHis (CD3W220.002) (human, UniProt P07766 22-118; P09693 23-103); assay: SPR, forced degradation: Thermal
T4 construct: also called human CD3; not shown: human serum albumin (HSA); 6xHis tag

[5] = molecular target: T2, CALRins5 (mutant calreticulin, 5 base …); assay: flow cytometry on ELF-153 MPL CALRins5 cells, 1 h at 37 C, AF647 secondary antibody, Geometric Mean
Procedure: FIGS. 4A-4F depict graphs of CALRmutxCD3 bispecific antibody C3CRB73 binding to cells CALRmut-negative or CALRmut-positive. Flow cytometry was used to evaluate C3CRB73 binding to CALRmut-negative and CALRmut-positive cancer cells in vitro. C3CRB73 and NullxCD3 control were tested on a panel of cell lines, engineered to express MPL and CALRmut, after 1 hour 37° C. incubation, with subsequent incubation with secondary AF647-labeled antibody. Geometric mean fluorescence intensity of AF647 was measured to determine antibody binding. […] Abbreviations: CALR, calreticulin; CALRmut, mutant calreticulin; CD, cluster of differentiation; del, deletion; ins, insertion; MPL, thrombopoietin receptor; spFv, stapled single chain fragment variable; wt, wild type.

[6] = molecular target: T2, CALRins5 (mutant calreticulin, 5 base …); assay: flow cytometry on OCI-M2 MPL CALRins5 cells, 1 h at 37 C, AF647 secondary antibody, Geometric mean
Procedure: (§1) FIGS. 27A-27F depict binding of different CALRmutxCD3 antibodies to CALRmut-negative or CALRmut-positive cells. Flow cytometry was used to evaluate CALRmutxCD3 binding to CALRmut-negative and CALRmut-positive cancer cells in vitro. CALRmutxCD3 antibodies were tested on a panel of cell lines, engineered to express MPL and CALRmut, after 1 hour 37° C. incubation, with subsequent incubation with secondary AF647-labeled antibody. Geometric mean fluorescence intensity of AF647 was measured to determine antibody binding.

[7] = molecular target: T2, CALRins5 (mutant calreticulin, 5 base …); assay: flow cytometry on ELF-153 MPL CALRins5 cells, 1 h at 37 C, AF647 secondary antibody, Geometric Mean; remark: listed apart in the source
Procedure: as §1, with “FIGS. 21A-21F depict binding” for “FIGS. 27A-27F depict binding”, “different CALRmutxCD3 bispecific antibodies to” for “different CALRmutxCD3 antibodies to”

[8] = molecular target: T2, CALRins5 (mutant calreticulin, 5 base …); assay: flow cytometry on ELF-153 MPL CALRins5 cells, 1 h at 37 C, AF647 secondary antibody, Geometric mean
Procedure: as §1

T4 sequence (P07766 other isoform, or with tags, fused parts or gaps): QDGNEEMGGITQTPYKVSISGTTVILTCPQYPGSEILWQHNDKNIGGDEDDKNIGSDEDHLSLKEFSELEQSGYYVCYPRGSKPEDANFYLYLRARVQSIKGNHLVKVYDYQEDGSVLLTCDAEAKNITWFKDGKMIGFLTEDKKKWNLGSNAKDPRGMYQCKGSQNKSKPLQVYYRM

% Active [3]: 94%
Kd [3]: 0.0357 nM
% Active [4]: 94%
Kd [4]: 0.225 nM
EC50 (read off the curve) [5]: ~4 nM
EC50 (read off the curve) [6]: ~5 nM
EC50 (read off the curve) [7]: ~2 nM
EC50 (read off the curve) [8]: ~5 nM
B1: C3CRB73 CALRmut x CD3 bispecific antibody (bispecific antibody, human IgG1, kappa, L234A L235A)
heavy: EVQLLESGGGLVQPGGSLRLSCAVSGIDLSNNAISWVRQAPGKGLEYVGVIGNTGDTYYADSAKGRFTISRDSSKTTLYLQMNSLRAEDTAVYFCVRGPPSYSSSVKNIWGQGTLVTVSSASTKGPSVFPLAPSSKSTSGGTAALGCLVKDYFPEPVTVSWNSGALTSGVHTFPAVLQSSGLYSLSSVVTVPSSSLGTQTYICNVNHKPSNTKVDKKVEPKSCDKTHTCPPCPAPEAAGGPSVFLFPPKPKDTLMISRTPEVTCVVVSVSHEDPEVKFNWYVDGVEVHNAKTKPREEQYNSTYRVVSVLTVLHQDWLNGKEYKCKVSNKALPAPIEKTISKAKGQPREPQVYTLPPSREEMTKNQVSLSCAVKGFYPSDIAVEWESNGQPENNYKTTPPVLDSDGSFFLVSKLTVDKSRWQQGNVFSCSVMHEALHNRFTQKSLSLSPGK
light: DIQMTQSPSSVSASVGDRVTITCQSSQSVYNNNWLSWLQQKPGKAPKRLIYDASKLESGVPSRFSGSGSGTDFTLTISSVQPEDAATYYCAGGFTGNVYTFGGGTKVEIKRTVAAPSVFIFPPSDEQLKSGTASVVCLLNNFYPREAKVQWKVDNALQSGNSQESVTEQDSKDSTYSLSSTLTLSKADYEKHKVYACEVTHQGLSSPVTKSFNRGEC
scFv: DIQMTQSPSSLSASVGDRVTITCRARQSIGTAIHWYQQKPGCAPKLLIKYASESISGVPSRFSGSGSGTDFTLTISSLQPEDFATYYCQQSGSWPYTFGQGTKLEIKGGGSGGSGGCPPCGGSGGEVQLVESGGGLVKPGGSLRLSCAASGFTFSRYNMNWVRQAPGKGLEWVSSISTSSNYIYYADSVKGRFTFSRDNAKNSLDLQMSGLRAEDTAIYYCTRGWGPFDYWGCGTLVTVSSEPKSSDKTHTCPPCPAPEAAGGPSVFLFPPKPKDTLMISRTPEVTCVVVSVSHEDPEVKFNWYVDGVEVHNAKTKPREEQYNSTYRVVSVLTVLHQDWLNGKEYKCKVSNKALPAPIEKTISKAKGQPREPQVYTLPPSREEMTKNQVSLWCLVKGFYPSDIAVEWESNGQPENNYKTTPPVLDSDGSFFLYSKLTVDKSRWQQGNVFSCSVMHEALHNHYTQKSLSLSPGK
notes: IgG1-AAS; also called JNJ-88549968; CALRB421 Fab x CD3 spFv
cytotoxicity EC50 (nM), whole blood of CALRmut MPN patients, ELF-153 MPL CALRdel52 [1]: 0.66 nM
cytotoxicity EC50 (nM), whole blood of healthy donors, ELF-153 MPL CALRdel52 [1]: 0.51 nM
cytotoxicity EC50 (nM), whole blood of CALRmut MPN patients, ELF-153 MPL CALRins5 [2]: 0.64 nM
cytotoxicity EC50 (nM), whole blood of healthy donors, ELF-153 MPL CALRins5 [2]: 0.32 nM
